# Data as given in patent US12472269B2, “Liver-specific inducible promoters and methods of use thereof” (ASKBIO INC., priority 2019, dated 2025).
# B1: PB1-3-CMV: promoter: 4 mouse PBREM elements with CMV minimal promoter, SEQ ID NO: 18 (nucleic acid)
# DNA: TCTGTACTTTCCTGACCTTGGCACAGTGCCACCATCAACTTGCCTGACACCCATTACTCGCATCCATTCTCTCTGTACTTTCCTGACCTTGGCACAGTGCCACCATCAACTTGCCTGACACCGCACTGAAGGTCCTCAATCGTCTGTACTTTCCTGACCTTGGCACAGTGCCACCATCAACTTGCCTGACACCCTGACCTCCTGCCAGCAATATCTGTACTTTCCTGACCTTGGCACAGTGCCACCATCAACTTGCCTGACACCGCTGGGAGTTCGTAGACGGAGCGATTAATCCATATGCAGGTCTATATAAGCAGAGCTCGTTTAGTGAACCGTCAGATCGCCTAGATACGCCATCCACGCTGTTTTGACCTCCATAGAAGATCGCCACCC
# modifications: PB1-3-CMV
# B2: PB1-1-SV40: promoter: 2 mouse PBREM elements with SV40 minimal promoter, SEQ ID NO: 13 (nucleic acid)
# DNA: TCTGTACTTTCCTGACCTTGGCACAGTGCCACCATCAACTTGCCTGACACCCATTACTCGCATCCATTCTCTCTGTACTTTCCTGACCTTGGCACAGTGCCACCATCAACTTGCCTGACACCGCTGGGAGTTCGTAGACGGACTAGCCCGGGCTCGAGATCTGCGATCTGCATCTCAATTAGTCAGCAACCATAGTCCCGCCCCTAACTCCGCCCATCCCGCCCCTAACTCCGCCCAGTTCCGCCCATTCTCCGCCCCATCGCTGACTAATTTTTTTTATTTATGCAGAGGCCGAGGCCGCCTCGGCCTCTGAGCTATTCCAGAAGTAGTGAGGAGGCTTTTTTGGAGGCCTAGGCTTTTGCAAAAAGCTTGGCATTCCGGTACTGTTGGTAAAGCCACCC
# modifications: PB1-1-SV40
# B3: PB1-3-SV40: promoter: 4 mouse PBREM elements with SV40 minimal promoter, SEQ ID NO: 15 (nucleic acid)
# DNA: TCTGTACTTTCCTGACCTTGGCACAGTGCCACCATCAACTTGCCTGACACCCATTACTCGCATCCATTCTCTCTGTACTTTCCTGACCTTGGCACAGTGCCACCATCAACTTGCCTGACACCGCACTGAAGGTCCTCAATCGTCTGTACTTTCCTGACCTTGGCACAGTGCCACCATCAACTTGCCTGACACCCTGACCTCCTGCCAGCAATATCTGTACTTTCCTGACCTTGGCACAGTGCCACCATCAACTTGCCTGACACCGCTGGGAGTTCGTAGACGGACTAGCCCGGGCTCGAGATCTGCGATCTGCATCTCAATTAGTCAGCAACCATAGTCCCGCCCCTAACTCCGCCCATCCCGCCCCTAACTCCGCCCAGTTCCGCCCATTCTCCGCCCCATCGCTGACTAATTTTTTTTATTTATGCAGAGGCCGAGGCCGCCTCGGCCTCTGAGCTATTCCAGAAGTAGTGAGGAGGCTTTTTTGGAGGCCTAGGCTTTTGCAAAAAGCTTGGCATTCCGGTACTGTTGGTAAAGCCACCC
# modifications: PB1-3-SV40
# B4: PB1-2-SV40: promoter: 3 mouse PBREM elements with SV40 minimal promoter, SEQ ID NO: 14 (nucleic acid)
# DNA: TCTGTACTTTCCTGACCTTGGCACAGTGCCACCATCAACTTGCCTGACACCCATTACTCGCATCCATTCTCTCTGTACTTTCCTGACCTTGGCACAGTGCCACCATCAACTTGCCTGACACCGCACTGAAGGTCCTCAATCGTCTGTACTTTCCTGACCTTGGCACAGTGCCACCATCAACTTGCCTGACACCGCTGGGAGTTCGTAGACGGACTAGCCCGGGCTCGAGATCTGCGATCTGCATCTCAATTAGTCAGCAACCATAGTCCCGCCCCTAACTCCGCCCATCCCGCCCCTAACTCCGCCCAGTTCCGCCCATTCTCCGCCCCATCGCTGACTAATTTTTTTTATTTATGCAGAGGCCGAGGCCGCCTCGGCCTCTGAGCTATTCCAGAAGTAGTGAGGAGGCTTTTTTGGAGGCCTAGGCTTTTGCAAAAAGCTTGGCATTCCGGTACTGTTGGTAAAGCCACCC
# modifications: PB1-2-SV40
# B5: PB1-1-CMV: promoter: 2 mouse PBREM elements with CMV minimal promoter, SEQ ID NO: 16 (nucleic acid)
# DNA: TCTGTACTTTCCTGACCTTGGCACAGTGCCACCATCAACTTGCCTGACACCCATTACTCGCATCCATTCTCTCTGTACTTTCCTGACCTTGGCACAGTGCCACCATCAACTTGCCTGACACCGCTGGGAGTTCGTAGACGGAGCGATTAATCCATATGCAGGTCTATATAAGCAGAGCTCGTTTAGTGAACCGTCAGATCGCCTAGATACGCCATCCACGCTGTTTTGACCTCCATAGAAGATCGCCACCC
# modifications: PB1-1-CMV
# B6: PB1-2-CMV: promoter: 3 mouse PBREM elements with CMV minimal promoter, SEQ ID NO: 17 (nucleic acid)
# DNA: TCTGTACTTTCCTGACCTTGGCACAGTGCCACCATCAACTTGCCTGACACCCATTACTCGCATCCATTCTCTCTGTACTTTCCTGACCTTGGCACAGTGCCACCATCAACTTGCCTGACACCGCACTGAAGGTCCTCAATCGTCTGTACTTTCCTGACCTTGGCACAGTGCCACCATCAACTTGCCTGACACCGCTGGGAGTTCGTAGACGGAGCGATTAATCCATATGCAGGTCTATATAAGCAGAGCTCGTTTAGTGAACCGTCAGATCGCCTAGATACGCCATCCACGCTGTTTTGACCTCCATAGAAGATCGCCACCC
# modifications: PB1-2-CMV
# System: AXOL ARE-hepatocytes
# Test: Luciferase expression from PBREM promoters in AXOL ARE-hepatocytes, induction by CITCO
# Type: cell-based, human
# Details: induction with CITCO, mean of 3 biological replicates
# Excerpt: Axol Assay-Ready Expanded (ARE) Hepatocytes are primary human hepatocytes that have been expanded in vitro. Large batch sizes (up to 2000 vials) are available, ensuring a reliable, ready-to-use and consistent source of primary hepatocytes. ARE Hepatocytes express CYP enzymes, are metabolically functional, are polarized and can be infected by the Hepatitis C virus. AXOL ARE-hepatocytes express CAR negating the need to transfect with a CAR-expressing plasmid.
# • AXOL assay-ready expanded (ARE) hepatocytes (Axol, ax3701) • ARE hepatocyte thawing medium (Axol, ax3705) • ARE maintenance medium (Axol, ax3710) • Virimer red transfection reagent (Lipocalyx, VR04-02-15) • CITCO, lucifierase, β-galactosidase and BCA kits as described above
# ARE hepatocytes were cultured and transfected as described in the manufacturer's manual. 200,000 cells were seeded in 2 ml culture medium in collagen-coated 6 well plate. The cells were incubated for 4 h at 37° C. and 5% CO2 for sufficient adhesion. 200 μl of transfection mixture containing the DNA to be transfected (PB1-MinTK/PB1-CMV/PB1-SV40 operably linked with luciferase and β-galactosidase containing promoter) was added and the cells were incubated on an orbital shaker at 100 rpm for three hours at 37° C. and 5% CO2. 3 hrs after transfection CITCO was added to the appropriate wells. Cells were incubated under static conditions at 37° C. and 5% CO2 overnight and in the morning the medium was replaced with fresh ARE Hepatocyte Maintenance Medium. Readout was 24 hrs after induction. […]
row,Molecule,induced luciferase expression as a ratio to CMV-IE
1,B1,2.67
2,B2,2.6
3,B3,2.57
4,B4,3.6
5,B5,1.9
6,B6,2.67
